The target of series [1] is T1, recombinant purified Atg11 (Atg11-His6) (yeast, UniProt Q12527 1-1178, Atto565 label in the GUV experiments).
T1 construct: N-terminal residual glycine-proline from PreScission protease digestion; Atg11, yeast; expressed from pCoofy37-Atg11; measured molecular weight 136 kDa; also called His-tagged Atg11; Atg11^Atto565; source: E. coli BL21 (DE3), coexpressed with chaperones from pG-KJE8, purified (Ni-NTA, PreScission digestion, gel filtration); not shown: His6, C-terminal, kept
T1 sequence: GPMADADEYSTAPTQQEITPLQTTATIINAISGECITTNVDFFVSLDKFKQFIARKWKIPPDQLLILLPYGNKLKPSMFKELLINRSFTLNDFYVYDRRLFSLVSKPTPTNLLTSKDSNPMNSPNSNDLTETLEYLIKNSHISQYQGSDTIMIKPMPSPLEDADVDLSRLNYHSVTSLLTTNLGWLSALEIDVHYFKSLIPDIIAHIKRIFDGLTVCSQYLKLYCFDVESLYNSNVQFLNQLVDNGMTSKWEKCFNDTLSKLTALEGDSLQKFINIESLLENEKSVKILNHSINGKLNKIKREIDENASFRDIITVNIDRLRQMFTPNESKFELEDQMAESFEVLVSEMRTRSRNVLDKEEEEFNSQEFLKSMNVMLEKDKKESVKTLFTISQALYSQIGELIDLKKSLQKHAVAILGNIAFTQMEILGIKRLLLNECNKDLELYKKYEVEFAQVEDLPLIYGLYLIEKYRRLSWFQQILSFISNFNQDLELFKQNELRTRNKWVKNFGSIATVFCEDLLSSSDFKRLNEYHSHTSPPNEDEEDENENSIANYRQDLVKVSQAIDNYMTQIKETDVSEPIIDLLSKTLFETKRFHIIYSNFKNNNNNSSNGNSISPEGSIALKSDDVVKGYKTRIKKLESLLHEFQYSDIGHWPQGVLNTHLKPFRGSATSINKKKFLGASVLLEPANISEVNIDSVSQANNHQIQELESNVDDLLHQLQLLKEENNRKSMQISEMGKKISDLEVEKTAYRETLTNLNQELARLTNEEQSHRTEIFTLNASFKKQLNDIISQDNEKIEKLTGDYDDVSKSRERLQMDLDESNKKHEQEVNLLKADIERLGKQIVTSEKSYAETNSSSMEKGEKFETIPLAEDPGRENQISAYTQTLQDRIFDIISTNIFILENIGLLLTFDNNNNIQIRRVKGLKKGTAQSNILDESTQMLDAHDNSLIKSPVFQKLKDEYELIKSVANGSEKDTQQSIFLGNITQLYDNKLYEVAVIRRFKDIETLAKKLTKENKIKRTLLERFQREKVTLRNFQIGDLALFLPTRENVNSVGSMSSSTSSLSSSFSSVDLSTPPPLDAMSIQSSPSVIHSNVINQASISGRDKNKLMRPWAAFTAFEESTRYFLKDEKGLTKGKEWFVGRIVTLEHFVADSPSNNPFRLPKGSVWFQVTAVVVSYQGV
In words: cross-linking; Sulfo-LC-SDA (spacer arm 12.5 Å) conjugated to primary amines of Atg32^SE, mixed with Atg11, 365 nm UV light for up to 15 min, SDS-PAGE. As to conditions: both partners purified.

Series [2] concerns the target T2, myc-tagged full length Atg11 (S. cerevisiae, UniProt Q12527 1-1178).
T2 construct: Atg11, scaffolding protein of selective autophagy, yeast; also called Atg11-myc; myc-Atg11; source: yeast cells expressing myc-tagged Atg11, in lysate
T2 sequence (looked up): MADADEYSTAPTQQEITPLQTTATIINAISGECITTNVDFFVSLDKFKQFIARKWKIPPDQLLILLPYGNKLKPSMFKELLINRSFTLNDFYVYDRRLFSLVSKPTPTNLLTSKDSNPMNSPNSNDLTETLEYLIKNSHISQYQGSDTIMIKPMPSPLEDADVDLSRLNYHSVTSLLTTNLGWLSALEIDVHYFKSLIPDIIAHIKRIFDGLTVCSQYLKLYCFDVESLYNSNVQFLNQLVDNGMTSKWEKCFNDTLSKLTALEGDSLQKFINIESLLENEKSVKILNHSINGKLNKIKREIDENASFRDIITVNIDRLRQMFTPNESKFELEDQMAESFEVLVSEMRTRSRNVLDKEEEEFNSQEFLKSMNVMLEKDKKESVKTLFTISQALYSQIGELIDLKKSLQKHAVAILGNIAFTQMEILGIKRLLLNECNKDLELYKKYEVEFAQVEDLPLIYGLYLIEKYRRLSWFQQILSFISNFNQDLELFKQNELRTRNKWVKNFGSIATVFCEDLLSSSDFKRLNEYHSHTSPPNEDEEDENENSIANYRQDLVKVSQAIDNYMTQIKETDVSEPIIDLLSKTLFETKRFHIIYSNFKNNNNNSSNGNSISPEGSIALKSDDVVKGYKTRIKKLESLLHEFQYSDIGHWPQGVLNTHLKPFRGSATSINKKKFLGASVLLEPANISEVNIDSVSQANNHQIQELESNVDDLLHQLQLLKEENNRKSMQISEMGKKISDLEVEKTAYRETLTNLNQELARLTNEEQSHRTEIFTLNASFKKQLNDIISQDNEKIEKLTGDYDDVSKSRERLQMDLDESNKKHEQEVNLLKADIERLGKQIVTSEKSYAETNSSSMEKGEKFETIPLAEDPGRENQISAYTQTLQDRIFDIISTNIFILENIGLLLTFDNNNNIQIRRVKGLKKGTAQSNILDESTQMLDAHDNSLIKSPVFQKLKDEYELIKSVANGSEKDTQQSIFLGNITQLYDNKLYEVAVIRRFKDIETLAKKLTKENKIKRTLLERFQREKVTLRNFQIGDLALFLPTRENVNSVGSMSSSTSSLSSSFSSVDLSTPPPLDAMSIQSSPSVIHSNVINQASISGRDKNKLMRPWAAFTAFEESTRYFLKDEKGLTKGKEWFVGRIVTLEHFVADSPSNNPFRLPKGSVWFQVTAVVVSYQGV
In words: co-IP; IP of myc-tagged Atg11 (anti-myc, Protein A magnetic beads), co-IP of HA-tagged Atg9; lysates of WT, atg13Δ, atg17Δ, atg29Δ and atg31Δ cells, log phase and starved; 25 mM Tris-HCl pH 7.2, 150 mM NaCl, 0.2% NP-40. As to conditions: partners not purified.

Series [3] deals with the molecule itself. Briefly: SEC; purified Atg11^ΔC on a Superose 6 column.

B1: Atg32^SE (Atg32^1-376 with the phosphomimetic mutation S114E) (domain or fragment, yeast, UniProt P40458 1-376, looked up)
chain: MVLEYQQREGKGSSSKSMPPDSSSTTIHTCSEAQTGEDKGLLDPHLSVLELLSKTGHSPSPMGQNLVTSIDISGNHNVNDSISGSWQAIQPLDLGASFIPERCSSQTTNGSILESSDTSEEEQELLQAPAADIINIIKQGQEGANVVSPSHPFKQLQKIISLPLPGKEKTPFNEQDDDGDEDEAFEEDSVTITKSLTSSTNSFVMPKLSLTQKNPVFRLLILGRTGSSFYQSIPKEYQSLFELPKYHDSATFPQYTGIVIIFQELREMVSLLNRIVQYSQGKPVIPICQPGQVIQVKNVLKSFLRNKLVKLLFPPVVVTNKRDLKKMFQRLQDLSLEYGEDVNEEDNDDEAIHTKSRSYCRNKKAENSKKKSPKSN
modifications: PacificBlue label in the GUV experiment; Sulfo-LC-SDA conjugated to primary amines in the cross-linking experiment
notes: Atg32, mitochondrial cargo receptor, yeast; N-terminal cytoplasmic domain, residues 1-376; also called Atg32^1-376,SE; Sulfo-LC-Atg32^SE
Take B1: in series [1], the binding result is listed as “binds”.

B2: HA-tagged Atg9 (natural protein, S. cerevisiae, UniProt Q12142 1-997, looked up)
chain: MERDEYQLPNSHGKNTFLSRIFGLQSDEVNPSLNSQEMSNFPLPDIERGSSLLHSTNDSREDVDENDLRVPESDQGTSTEEEDEVDEEQVQAYAPQISDGLDGDHQLNSVTSKENVLETEKSNLERLVEGSTDDSVPKVGQLSSEEEEDNEFINNDGFDDDTPLFQKSKIHEFSSKKSNTIEDGKRPLFFRHILQNNRPQRDTQKLFTSSNAIHHDKDKSANNGPRNINGNQKHGTKYFGSATQPRFTGSPLNNTNRFTKLFPLRKPNLLSNISVLNNTPEDRINTLSVKERALWKWANVENLDIFLQDVYNYYLGNGFYCIILEKILNICTLLFVVFVSTYMGHCVDYSKLPTSHRVSDIIIDKCYSNSITGFTKFFLWMFYFFVILKIVQLYFDVQKLSELQNFYKYLLNISDDELQTLPWQNVIQQLMYLKDQNAMTANVVEVKAKNRIDAHDVANRIMRRENYLIALYNSDILNLSLPIPLFRTNVLTKTLEWNINLCVMGFVFNESGFIKQSILKPSQREFTREELQKRFMLAGFLNIILAPFLVTYFVLLYFFRYFNEYKTSPGSIGARQYTPIAEWKFREYNELYHIFKKRISLSTTLANKYVDQFPKEKTNLFLKFVSFICGSFVAILAFLTVFDPENFLNFEITSDRSVIFYITILGAIWSVSRNTITQEYHVFDPEETLKELYEYTHYLPKEWEGRYHKEEIKLEFCKLYNLRIVILLRELTSLMITPFVLWFSLPSSAGRIVDFFRENSEYVDGLGYVCKYAMFNMKNIDGEDTHSMDEDSLTKKIAVNGSHTLNSKRRSKFTAEDHSDKDLANNKMLQSYVYFMDDYSNSENLTGKYQLPAKKGYPNNEGDSFLNNKYSWRKQFQPGQKPELFRIGKHALGPGHNISPAIYSTRNPGKNWDNNNNGDDIKNGTNNATAKNDDNNGNNDHEYVLTESFLDSGAFPNHDVIDHNKMLNSNYNGNGILNKGGVLGLVKEYYKKSDVGR
notes: Atg9, transmembrane autophagy protein, yeast; also called HA-Atg9; source: yeast cells expressing HA-tagged Atg9, in lysate
As for B2, in series [2], the “fold binding in atg17Δ against wild-type cells, upon starvation” value was 4.1 fold.

B3: recombinant purified Atg11^ΔC (residues 1-667) (domain or fragment, yeast, UniProt Q12527 1-667, looked up)
chain: MADADEYSTAPTQQEITPLQTTATIINAISGECITTNVDFFVSLDKFKQFIARKWKIPPDQLLILLPYGNKLKPSMFKELLINRSFTLNDFYVYDRRLFSLVSKPTPTNLLTSKDSNPMNSPNSNDLTETLEYLIKNSHISQYQGSDTIMIKPMPSPLEDADVDLSRLNYHSVTSLLTTNLGWLSALEIDVHYFKSLIPDIIAHIKRIFDGLTVCSQYLKLYCFDVESLYNSNVQFLNQLVDNGMTSKWEKCFNDTLSKLTALEGDSLQKFINIESLLENEKSVKILNHSINGKLNKIKREIDENASFRDIITVNIDRLRQMFTPNESKFELEDQMAESFEVLVSEMRTRSRNVLDKEEEEFNSQEFLKSMNVMLEKDKKESVKTLFTISQALYSQIGELIDLKKSLQKHAVAILGNIAFTQMEILGIKRLLLNECNKDLELYKKYEVEFAQVEDLPLIYGLYLIEKYRRLSWFQQILSFISNFNQDLELFKQNELRTRNKWVKNFGSIATVFCEDLLSSSDFKRLNEYHSHTSPPNEDEEDENENSIANYRQDLVKVSQAIDNYMTQIKETDVSEPIIDLLSKTLFETKRFHIIYSNFKNNNNNSSNGNSISPEGSIALKSDDVVKGYKTRIKKLESLLHEFQYSDIGHWPQGVLNTHLKPFRGSA
notes: Atg11, yeast, N-terminal fragment, residues 1-667; expressed from pCoofy37-Atg11^ΔC; molecular weight 78.2 kDa; Made from the same vector as full-length Atg11, so it may also carry a C-terminal His6 tag and an N-terminal Gly-Pro; also called purified Atg17-like domain of Atg11; source: E. coli BL21 (DE3), coexpressed with chaperones from pG-KJE8, purified
For the molecule B3, in series [3], the “stoichiometry N” value is 2.

Usually stoichiometry N stands for the number of molecules, sites or subunits per partner or assembly.

Source of the values: paper PMC6687201, “Atg11 tethers Atg9 vesicles to initiate selective autophagy” (PLoS Biology, 2019).
